Experimental findings from patent publication US12479895B2, “C-terminal CDNF and MANF fragments, pharmaceutical compositions comprising same and uses thereof” (MyNeuroCure Oy, priority 2018, dated 2025) are described below.

Data set [1] concerns ER stressed SCG neurons. Description: Survival of tunicamycin-treated (ER stressed) SCG sympathetic neurons after microinjection. The format is cell-based, mice. Conditions: for survived neurons as % compared to neurons grown in the presence of NGF: Table 1A (FIG. 14), microinjected into cytoplasm, CDNF (400); for Fold change of survived neurons compared to neurons injected with PBS: data of Table 1 divided by values of PBS. The essentials: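 Newborn mouse SCG neurons grown 5-6 days with 30 ng/ml NGF, then microinjected with CDNF (FL or C-terminal) plasmids (10 ng/ul, EGFP reporter) or proteins (200 ng/ul, Dextran Texas Red). Tunicamycin (2 μM) added next day. Fluorescent survivors counted blindly after 3 days as % of initial; compared with vector or PBS (ANOVA/Dunnett).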

The test system of data set [2] is rat 6-OHDA model of PD. Description: Neurorestoration study in 6-OHDA model of PD in rats. It counts as in vivo. As to conditions: injected intrastriatally 2 weeks after 6-OHDA lesioning; rotations at 2, 4, 6 and 8 weeks post-lesion.
The conditions of data set [3]: rat, in vivo, sc.
Protocol: CDNF, C-CDNF and C-MANF were iodinated with ^125I-Na using the lactoperoxidase method. The protein in question was dissolved in 30 μl of 0.25 M phosphate buffer, pH 7.5, and mixed with ^125I-Na (1 mCi/2.8 μl; 1 mCi=37 mBq; GE Healthcare). The reaction was started by adding lactoperoxidase 10 μl of 50 μg/ml and 0.05% H2O2. The mixture was incubated at room temperature for 20 min and the reaction was stopped by adding 3 volumes of 0.1 M phosphate buffer, pH 7.5, containing 0.1 M NaI, 0.42 M NaCl, and then 25 μl of 2.5% BSA was added. Free iodine and iodinated protein were separated by gel filtration on Sephadex G-25 columns (PM10; GE Healthcare). For column equilibrium and elution, 0.1 M phosphate buffer, pH 7.5, with 1% BSA was used. The iodinated growth factors were sometimes concentrated by using YM-10 Centricon columns (Millipore). The specific activity of ^125I-labeled CDNF, C-CDNF and C-MANF was measured on the Wizard 3 1480 Automatic Gamma Counter (Perkin Elmer, Wallac) and was about 10^8 cpm/μg protein. The labelled protein were kept at 4° C. and used within 3 weeks after labelling.
^125I-CDNF, ^125I C-CDNF or ^125I C-MANF (all proteins at 10^6 cpm in 10 μl) were injected subcutaneously to adult male Wistar rats. […] Radioactivity was analyzed in different brain regions by gamma counter. […] The differences between groups were analyzed ANOVA followed by Tukey-Kramers post hoc test.
Data set [4] concerns SOD1-G93A mouse ALS model. Description: SOD1-G93A mouse model of ALS. The format is in vivo. The source says: Transgenic SOD1 G93A mice served as a transgenic mouse model for ALS in this study. Transgenic mice containing various human SOD1 mutations develop progressive neurodegeneration and motoneuron (MN) death, providing an animal model that has been commonly used for preclinical trials and that has greatly contributed to the understanding of FALS pathogenesis (Gurney et al., 1994). […] In these mice hind limb weakness and tremulous movement appear as initial symptoms at 8-10 week of age, followed by major symptoms such as progressive motor paralysis and neurogenic amyotrophy (Shibata 2001). These mice subsequently show disability of gait, eating and drinking and die within some weeks, usually at 14-16 week of age. The transgenic mice carrying the human SOD1 with the glycine93 to alanine mutated were originally obtained from The Jackson Laboratory (http://www.jax.org), Bar Harbor, ME; Strain B6SJL-TgN (SOD1-G93A) 1Gur). Transgenic expression was analyzed by DNA tail tests and PCR, using specific oligonucleotides and conditions as done previously by others (see homepage Jackson Lab). In all the experiments the wild-type B6SJL-TgN (SOD1) 2Gur were included as controls.
In the single administration experiment, mice at around 13 weeks of age received a single intracerebroventricular injection of PBS or C-CDNF (3.75 μg that is equimolar to full-length CDNF 10 μg diluted in PBS) under isofluorane anesthesia. Mice were then evaluated for signs of disease and body weight changes twice a week. Evaluation was completed by a battery of behavioral tests designed to assess motor activity in the mice; the battery comprises tests e.g rotarod.
In the chronic infusion experiment, 12-week-old SOD1 mice were inserted a brain infusion cannula (connected via catheter-tubing to an Alzet osmotic minipump) to the right lateral ventricle under isoflurane anesthesia. C-CDNF (1.5 μg/24 h) was infused for 28 days. Motor behavior was evaluated with rotarod. Mice were evaluated for clinical signs and body weight changes.
Clinical scoring for SOD1 mice was done using instructions from Jackson laboratory. The mice were carefully examined 2 times a week after they were 12 weeks old. Animals were scored by lifting them gently by the base of their tails and observing them for tremors, stiffness and their ability to extend their limbs. The clinical scoring is on a scale of 1 to 5, based on ALSTDI (ALS therapy Development Institute) hind limb neurological scoring system.
In rotarod, mice were put to a rotating rod (accelerating speed 4-40 rpm/minute), (Ugo Basile, Italy). Cut off time was 4 minutes. Rotarod test was done 2 times a week after the mice were 12 weeks old.

B1: KYEKTLDLASVDLRKMRVAELKQILHSWGEECRACAEKTDYVNLIQELAPKYAATHPKTEL (peptide, listed as Homo sapiens)
chain: KYEKTLDLASVDLRKMRVAELKQILHSWGEECRACAEKTDYVNLIQELAPKYAATHPKTEL
Turning to B1, the “survived neurons as % compared to neurons grown in the presence of NGF” value in data set [1] (AVG of exp1-2, tunicamycin 2 μM) came to 84.37 % NGF; in data set [1] (exp1, tunicamycin 2 μM, counted after 3 days), 78.87 % NGF; in data set [1] (exp2, tunicamycin 2 μM, counted after 3 days) it was 89.87 % NGF. The “Fold change of survived neurons compared to neurons injected with PBS” value in data set [1] (Table 2, AVG) is reported as 2.28 Fold to PBS; in data set [1] (Table 2, exp1) it was 2.30 Fold to PBS; in data set [1] (Table 2, exp2) it was 2.26 Fold to PBS. For the same molecule, in data set [1] (expressed from microinjected plasmids, tunicamycin 2 μM, living fluorescent neurons counted after three days), the “rescue of ER stressed SCG sympathetic neurons (result in words)” value is given as “rescue”. In addition, the “rescue of ER stressed SCG neurons (result in words)” value in data set [1] (protein or peptide microinjected into the cytoplasm, tunicamycin 2 μM, living fluorescent neurons counted after 3 days) is on record as “rescue”. Further, in data set [2], the “cumulative amount of amphetamine-induced rotations” value is on record as “significantly reduces”. In addition, the blood-brain-barrier penetration result in data set [3] is reported as “capable of penetrating”. Also, in data set [4] (4-week chronic intracerebroventricular infusion 1.5 μg/24 h, significant week 13 until week 19, p<0.01), the “motor coordination (rotarod performance)” value is recorded as “improves motor coordination”. For the same molecule, in data set [4] (4-week chronic intracerebroventricular infusion 1.5 μg/24 h, weeks 18 and 19, p<0.05 vs PBS), the “relative changes in body weight” value is “Significant differences”. Further, the “motor behavior (rotarod, latency to fall)” value in data set [4] (single intracerebroventricular injection 3.75 μg at 13 weeks, SOD1-G93A females, vs PBS) was “improves the motor behavior”. Also, the clinical score entry in data set [4] (single intracerebroventricular injection 3.75 μg at the age of 13 weeks, female animals, vs PBS) is reported as “statistically significantly better clinical scores”.
